Measured values: PMC6067968

Tests used:
Test in all cases: cross-linking
[1] = target: Recombinant full-length human apolipoprotein A-I F71Y (human)
[2] = target: Recombinant full-length human apolipoprotein A-I L159R (Finnish variant) (human)
[3] = target: Recombinant full-length human apolipoprotein A-I L170P (human)

Which stoichiometry N [1] does the source give for “Recombinant full-length human apolipoprotein A-I F71Y (natural protein)” here?
The stoichiometry N was 2.

How did the stoichiometry N [2] turn out when “Recombinant full-length human apolipoprotein A-I L159R (Finnish variant) (natural protein)” was run?
Its stoichiometry N is 2.

How did the stoichiometry N [3] turn out when “Recombinant full-length human apolipoprotein A-I L170P (natural protein)” was run?
The stoichiometry N was 2.
